Drawing on PMC3701795, “Heterologous expression and characterization of a malathion-hydrolyzing carboxylesterase from a thermophilic bacterium, Alicyclobacillus tengchongensis” (Biotechnology Letters, 2013), this text covers Km for one substance.

In the data set the test system is CC(=O)Oc1ccc2ccccc2c1. Briefly: purified protein. As to conditions: pH 7 potassium phosphate, 60 °C, 0.1-0.95 mM substrate.

With D1CarE5 (Alicyclobacillus sp. D-1), the Michaelis constant (Km) was found to be 1000 µM.

For orientation: Km means the concentration of substrate that gives half-maximal velocity.
